Holding throughout (assay): pulldown
In series [1] the target is T1, msi (Drosophila melanogaster) (UniProt H9ZJL0).
T1 sequence: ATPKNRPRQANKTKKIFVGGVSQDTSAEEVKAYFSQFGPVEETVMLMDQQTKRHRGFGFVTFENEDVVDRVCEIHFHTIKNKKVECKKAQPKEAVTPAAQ
The following applies: 20 nM protein, 1.5 uM RNA pool; 20 mM HEPES pH 7.8, 70 mM KCl, 10 mM NaCl, 10% glycerol, 2 mM DTT, 0.1 ug/uL BSA; 30 min, 4 C (protocol of this paper; not …); cited from earlier work.

Another series has as its target RBM5 (Homo sapiens) (UniProt P52756). To be noted: 20 nM protein, 1.5 uM RNA pool; 20 mM HEPES pH 7.8, 70 mM KCl, 10 mM NaCl, 10% glycerol, 2 mM DTT, 0.1 ug/uL BSA; 30 min, 4 C (protocol of this paper; not …); cited from earlier work.
Series [2] addresses T2, PUB1 (Saccharomyces cerevisiae) (UniProt P32588).
T2 sequence: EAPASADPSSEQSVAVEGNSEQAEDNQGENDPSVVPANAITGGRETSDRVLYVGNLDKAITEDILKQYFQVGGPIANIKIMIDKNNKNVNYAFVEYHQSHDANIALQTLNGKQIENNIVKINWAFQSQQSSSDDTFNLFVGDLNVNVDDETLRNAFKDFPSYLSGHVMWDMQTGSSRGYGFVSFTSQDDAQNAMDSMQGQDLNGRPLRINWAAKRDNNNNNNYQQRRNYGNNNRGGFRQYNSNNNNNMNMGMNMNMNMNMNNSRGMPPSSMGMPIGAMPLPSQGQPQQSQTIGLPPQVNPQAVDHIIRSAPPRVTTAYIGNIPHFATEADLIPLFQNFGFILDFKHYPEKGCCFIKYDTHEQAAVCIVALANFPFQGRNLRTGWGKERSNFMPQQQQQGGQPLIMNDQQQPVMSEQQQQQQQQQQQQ
The following applies: 20 nM protein, 1.5 uM RNA pool; 20 mM HEPES pH 7.8, 70 mM KCl, 10 mM NaCl, 10% glycerol, 2 mM DTT, 0.1 ug/uL BSA; 30 min, 4 C.

In series [3] the target is T3, tiar-3 (Caenorhabditis elegans) (UniProt Q93194).
T3 sequence: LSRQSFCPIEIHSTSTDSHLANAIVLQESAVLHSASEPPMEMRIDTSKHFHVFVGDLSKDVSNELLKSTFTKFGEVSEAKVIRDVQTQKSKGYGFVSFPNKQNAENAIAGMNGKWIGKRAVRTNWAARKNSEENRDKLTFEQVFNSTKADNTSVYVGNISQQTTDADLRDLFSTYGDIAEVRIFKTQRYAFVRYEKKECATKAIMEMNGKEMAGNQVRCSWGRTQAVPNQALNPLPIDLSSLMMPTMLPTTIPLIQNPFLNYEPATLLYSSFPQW
The following applies: 20 nM protein, 1.5 uM RNA pool; 20 mM HEPES pH 7.8, 70 mM KCl, 10 mM NaCl, 10% glycerol, 2 mM DTT, 0.1 ug/uL BSA; 30 min, 4 C (protocol of this paper; not …); cited from earlier work.

The next series addresses T4, RBM46 (Homo sapiens) (UniProt Q8TBY0).
T4 sequence: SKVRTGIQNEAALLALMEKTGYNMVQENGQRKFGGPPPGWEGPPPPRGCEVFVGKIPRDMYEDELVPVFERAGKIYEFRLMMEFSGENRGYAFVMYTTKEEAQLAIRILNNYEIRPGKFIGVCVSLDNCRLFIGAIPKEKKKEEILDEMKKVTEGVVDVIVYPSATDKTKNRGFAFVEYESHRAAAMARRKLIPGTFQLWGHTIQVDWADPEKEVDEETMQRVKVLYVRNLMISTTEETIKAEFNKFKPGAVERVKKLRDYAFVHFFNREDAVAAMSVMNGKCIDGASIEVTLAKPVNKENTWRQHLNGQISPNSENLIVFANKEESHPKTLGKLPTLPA
The following applies: 20 nM protein, 1.5 uM RNA pool; 20 mM HEPES pH 7.8, 70 mM KCl, 10 mM NaCl, 10% glycerol, 2 mM DTT, 0.1 ug/uL BSA; 30 min, 4 C (protocol of this paper; not …); cited from earlier work.

Series [4] addresses hnrpkl (Tetraodon nigroviridis) (UniProt H3CQ29). The following applies: 20 nM protein, 1.5 uM RNA pool; 20 mM HEPES pH 7.8, 70 mM KCl, 10 mM NaCl, 10% glycerol, 2 mM DTT, 0.1 ug/uL BSA; 30 min, 4 C.
Series [5] addresses T5, mex-5 (Caenorhabditis elegans) (UniProt Q9XUB2).
T5 sequence: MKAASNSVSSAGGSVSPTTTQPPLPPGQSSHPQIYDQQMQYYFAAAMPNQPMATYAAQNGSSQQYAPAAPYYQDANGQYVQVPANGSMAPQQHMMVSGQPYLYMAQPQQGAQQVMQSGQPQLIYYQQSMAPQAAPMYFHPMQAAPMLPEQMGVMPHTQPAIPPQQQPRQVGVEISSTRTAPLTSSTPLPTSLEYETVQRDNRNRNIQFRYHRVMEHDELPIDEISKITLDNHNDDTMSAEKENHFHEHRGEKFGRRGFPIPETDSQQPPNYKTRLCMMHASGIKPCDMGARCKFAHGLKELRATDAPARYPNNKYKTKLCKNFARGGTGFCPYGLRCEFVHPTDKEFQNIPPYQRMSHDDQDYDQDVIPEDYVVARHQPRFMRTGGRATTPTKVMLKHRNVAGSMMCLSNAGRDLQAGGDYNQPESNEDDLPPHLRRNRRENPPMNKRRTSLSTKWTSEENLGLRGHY
The following applies: 20 nM protein, 1.5 uM RNA pool; 20 mM HEPES pH 7.8, 70 mM KCl, 10 mM NaCl, 10% glycerol, 2 mM DTT, 0.1 ug/uL BSA; 30 min, 4 C (protocol of this paper; not …); cited from earlier work.

The target of series [6] is T6, RBM24 (Tetraodon nigroviridis) (UniProt H3DM38).
T6 sequence: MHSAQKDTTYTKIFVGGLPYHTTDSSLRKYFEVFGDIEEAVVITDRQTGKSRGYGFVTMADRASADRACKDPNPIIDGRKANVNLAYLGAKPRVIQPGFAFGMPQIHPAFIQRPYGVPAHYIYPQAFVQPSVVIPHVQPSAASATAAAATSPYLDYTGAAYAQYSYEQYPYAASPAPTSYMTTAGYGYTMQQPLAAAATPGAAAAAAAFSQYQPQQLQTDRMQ
To be noted: 20 nM protein, 1.5 uM RNA pool; 20 mM HEPES pH 7.8, 70 mM KCl, 10 mM NaCl, 10% glycerol, 2 mM DTT, 0.1 ug/uL BSA; 30 min, 4 C.

The next series has as its target CELF4 (Homo sapiens) (UniProt Q9BZC1). The following applies: 20 nM protein, 1.5 uM RNA pool; 20 mM HEPES pH 7.8, 70 mM KCl, 10 mM NaCl, 10% glycerol, 2 mM DTT, 0.1 ug/uL BSA; 30 min, 4 C (protocol of this paper; not …); cited from earlier work.
A further series has as its target PABPC4 (Homo sapiens) (UniProt Q13310). To be noted: 20 nM protein, 1.5 uM RNA pool; 20 mM HEPES pH 7.8, 70 mM KCl, 10 mM NaCl, 10% glycerol, 2 mM DTT, 0.1 ug/uL BSA; 30 min, 4 C (protocol of this paper; not …); cited from earlier work.

Chain of RBM5 (Homo sapiens) (P52756 1-546): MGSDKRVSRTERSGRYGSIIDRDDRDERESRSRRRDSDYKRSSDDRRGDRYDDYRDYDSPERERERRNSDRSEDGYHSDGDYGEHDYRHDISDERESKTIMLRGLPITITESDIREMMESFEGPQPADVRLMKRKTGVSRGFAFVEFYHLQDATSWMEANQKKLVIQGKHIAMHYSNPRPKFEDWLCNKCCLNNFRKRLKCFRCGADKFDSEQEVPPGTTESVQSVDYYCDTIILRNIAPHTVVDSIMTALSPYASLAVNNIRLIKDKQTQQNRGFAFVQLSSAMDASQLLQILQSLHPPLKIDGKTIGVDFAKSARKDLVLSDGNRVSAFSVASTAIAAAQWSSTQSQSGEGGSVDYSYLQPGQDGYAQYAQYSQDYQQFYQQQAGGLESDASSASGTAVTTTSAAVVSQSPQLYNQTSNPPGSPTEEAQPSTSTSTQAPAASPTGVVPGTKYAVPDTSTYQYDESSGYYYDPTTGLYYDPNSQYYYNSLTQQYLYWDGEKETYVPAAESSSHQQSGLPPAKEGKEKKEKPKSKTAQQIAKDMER
Chain of PABPC4 (Homo sapiens) (Q13310 1-414): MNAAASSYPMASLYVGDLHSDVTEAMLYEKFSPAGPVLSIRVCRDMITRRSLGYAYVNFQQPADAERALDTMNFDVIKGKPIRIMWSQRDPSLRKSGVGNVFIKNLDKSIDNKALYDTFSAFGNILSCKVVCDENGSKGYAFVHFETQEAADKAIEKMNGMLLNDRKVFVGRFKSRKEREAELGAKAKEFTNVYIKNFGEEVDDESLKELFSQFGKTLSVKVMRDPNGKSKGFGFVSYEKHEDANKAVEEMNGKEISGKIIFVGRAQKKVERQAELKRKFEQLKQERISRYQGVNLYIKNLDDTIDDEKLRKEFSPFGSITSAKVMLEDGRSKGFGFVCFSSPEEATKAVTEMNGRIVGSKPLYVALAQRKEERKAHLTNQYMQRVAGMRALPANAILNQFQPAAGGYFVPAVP
Chain of hnrpkl (Tetraodon nigroviridis) (H3CQ29 entry or part of it): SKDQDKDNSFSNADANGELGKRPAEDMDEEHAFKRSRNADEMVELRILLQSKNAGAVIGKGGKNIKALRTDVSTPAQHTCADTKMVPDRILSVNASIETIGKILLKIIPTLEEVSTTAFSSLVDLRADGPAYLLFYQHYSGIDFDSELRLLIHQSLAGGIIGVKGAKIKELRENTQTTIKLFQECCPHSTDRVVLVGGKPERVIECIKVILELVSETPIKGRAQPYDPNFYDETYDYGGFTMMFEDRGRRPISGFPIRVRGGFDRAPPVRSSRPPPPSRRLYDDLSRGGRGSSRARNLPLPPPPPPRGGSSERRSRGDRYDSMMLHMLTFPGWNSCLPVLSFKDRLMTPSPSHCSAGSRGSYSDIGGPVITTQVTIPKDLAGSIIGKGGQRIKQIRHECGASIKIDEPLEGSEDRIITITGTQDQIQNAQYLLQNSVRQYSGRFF
Chain of CELF4 (Homo sapiens) (Q9BZC1 6-486): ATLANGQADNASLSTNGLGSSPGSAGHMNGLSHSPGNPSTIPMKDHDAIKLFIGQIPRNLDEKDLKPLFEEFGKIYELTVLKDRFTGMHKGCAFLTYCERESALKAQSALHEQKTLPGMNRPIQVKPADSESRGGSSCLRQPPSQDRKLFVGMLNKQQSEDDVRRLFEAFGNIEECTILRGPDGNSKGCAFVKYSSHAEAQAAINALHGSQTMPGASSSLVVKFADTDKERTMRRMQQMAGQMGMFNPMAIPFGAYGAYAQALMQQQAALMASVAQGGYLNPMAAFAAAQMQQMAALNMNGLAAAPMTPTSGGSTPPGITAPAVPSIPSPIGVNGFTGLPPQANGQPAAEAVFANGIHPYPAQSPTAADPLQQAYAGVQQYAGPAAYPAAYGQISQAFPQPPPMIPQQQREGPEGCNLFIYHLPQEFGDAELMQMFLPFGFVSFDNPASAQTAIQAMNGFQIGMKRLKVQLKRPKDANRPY

On to GUAGUU [RNAcompete motif RNCMPT00040], for which, in series [1], the binding signal (z-score (mean of top ten 7-mers)) was 12.5. Take GAAGGNA [RNAcompete motif RNCMPT00055]: the binding signal (z-score (mean of top ten 7-mers)) with RBM5 (Homo sapiens) is 6.04. UUUUUUU [RNAcompete motif RNCMPT01685]: the binding signal (z-score (mean of top ten 7-mers)) in [2] came out at 11.6.

With UUUUUU [RNAcompete motif RNCMPT00005], the binding signal (z-score (mean of top ten 7-mers)) in series [3] is 11. As to AAUCAA [RNAcompete motif RNCMPT00054], the binding signal (z-score (mean of top ten 7-mers)) with RBM46 (Homo sapiens) was 8.4.

In series [4], AAACCCAA [RNAcompete motif RNCMPT01679] had a binding signal (z-score (mean of top ten 7-mers)) of 6.12. In the case of UAAUA [RNAcompete motif RNCMPT00039], the binding signal (z-score (mean of top ten 7-mers)) in series [5] was 18.

Consider GAGUGUG [RNAcompete motif RNCMPT01677], for which, in series [6], the binding signal (z-score (mean of top ten 7-mers)) was found to be 9.92.

UGUGUG [RNAcompete motif RNCMPT00004]: the binding signal (z-score (mean of top ten 7-mers)) with CELF4 (Homo sapiens) was 7.26. For the substance AAAAAA [RNAcompete motif RNCMPT00043], in the series with PABPC4 (Homo sapiens), the binding signal (z-score (mean of top ten 7-mers)) was 12.2.
